The values that follow come from patent publication US20250215104A1.

For the assay, the target named is cell surface human uPAR (huPAR) (human) (UniProt Q03405). Put plainly: cell-based or functional assay.
Sequence of cell surface human uPAR (huPAR) (human) (Q03405 23-305): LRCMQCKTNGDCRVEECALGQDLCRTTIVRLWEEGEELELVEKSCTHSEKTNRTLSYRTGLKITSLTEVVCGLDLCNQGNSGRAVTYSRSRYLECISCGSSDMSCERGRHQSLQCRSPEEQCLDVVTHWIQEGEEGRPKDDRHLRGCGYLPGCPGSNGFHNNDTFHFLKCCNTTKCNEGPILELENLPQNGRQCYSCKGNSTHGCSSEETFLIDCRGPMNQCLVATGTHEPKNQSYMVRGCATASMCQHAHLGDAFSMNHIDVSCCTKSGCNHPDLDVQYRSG

Substance hIgG control antibody gave a cellular endocytosis: mean cellular fluorescent signal (FITC-conjugated antibody, 10 µg/mL, 1 hr, undifferentiated human podocytes) of 100 RFU.
